Measurements: US20240374685A1, “METHODS OF TREATING LOCALLY ADVANCED OR METASTATIC PANCREATIC ADENOCARCINOMA USING AXL DECOY RECEPTORS AS FIRST-LINE THERAPY” (Aravive Inc, priority 2021, published 2024)

Tests used:
[1] = tested on: metastatic pancreatic adenocarcinoma; details: cited from earlier work
mouse = experiment: 3-month mouse toxicity study; format: in vivo
Experimental: There were no clinical observations, no changes in urinalysis parameters, no ophthalmology signs, and no macroscopic or microscopic observations of significance related to the administration of AVB-S6-500 at doses up to the NOAEL of 200 mg/kg/week.

aggressive human cancers [2] = experiment: Preclinical (nonclinical) tumor models; format: in vivo, mouse
[3] = tested on: locally advanced, recurrent, or metastatic 1L pancreatic adenocarcinoma; experiment: Phase 1b study of AVB-S6-500 plus nab-paclitaxel and gemcitabine
Experimental: The AVB-S6-500 volume is adjusted according to the subject's weight and diluted prior to infusion.
On days when all three drugs are administered, the sequence of administration is AVB-S6-500 infusion first followed by at least a 30-minute observation period, then nab-paclitaxel immediately followed by gemcitabine. AVB-S6-500 (15 mg/kg) will be administered by a 1-hour IV infusion on Days 1 and 15 of each 28-day cycle. Subjects will receive premedication with anti-H1 antagonists (anti-H1) and anti-H2 antagonists (anti-H2) (steroids optional) prior to administration of AVB-S6-500 to reduce the risk and severity of infusion reactions. Nab-paclitaxel (125 mg/m2) will be administered by a 30-40-minute IV infusion on Days 1, 8, and 15 of each 28-day cycle. Immediately following nab-paclitaxel, gemcitabine (1000 mg/m2) will be administered by a 30-minute IV infusion on Days 1, 8, and 15 of each 28-day cycle. Appropriate premedication with corticosteroids, diphenhydramine, and H2 antagonists (as per institutional practice, with IV antihistamines and steroids strongly recommended) should be administered prior to administration of nab-paclitaxel and gemcitabine.
The Ph1b portion of this study is a multicenter, open-label, single treatment arm group design to evaluate the safety, tolerability, and preliminary efficacy of AVB-S6-500 in combination with nab-paclitaxel and gemcitabine in subjects with locally advanced, recurrent, or metastatic 1L pancreatic adenocarcinoma.

healthy volunteers = experiment: First-in-human Phase 1 single ascending dose and repeat-dose study; format: in vivo
Experimental: Single dose cohorts of 1, 2.5, 5, and 10 mg/kg were evaluated as well as 1 RD cohort dosed with 5 mg/kg once weekly for 4 weeks.

GAS6 = target: T1, GAS6 (Homo sapiens, UniProt Q14393); experiment: Binding affinity to GAS6
T1 sequence (Q14393 31-678): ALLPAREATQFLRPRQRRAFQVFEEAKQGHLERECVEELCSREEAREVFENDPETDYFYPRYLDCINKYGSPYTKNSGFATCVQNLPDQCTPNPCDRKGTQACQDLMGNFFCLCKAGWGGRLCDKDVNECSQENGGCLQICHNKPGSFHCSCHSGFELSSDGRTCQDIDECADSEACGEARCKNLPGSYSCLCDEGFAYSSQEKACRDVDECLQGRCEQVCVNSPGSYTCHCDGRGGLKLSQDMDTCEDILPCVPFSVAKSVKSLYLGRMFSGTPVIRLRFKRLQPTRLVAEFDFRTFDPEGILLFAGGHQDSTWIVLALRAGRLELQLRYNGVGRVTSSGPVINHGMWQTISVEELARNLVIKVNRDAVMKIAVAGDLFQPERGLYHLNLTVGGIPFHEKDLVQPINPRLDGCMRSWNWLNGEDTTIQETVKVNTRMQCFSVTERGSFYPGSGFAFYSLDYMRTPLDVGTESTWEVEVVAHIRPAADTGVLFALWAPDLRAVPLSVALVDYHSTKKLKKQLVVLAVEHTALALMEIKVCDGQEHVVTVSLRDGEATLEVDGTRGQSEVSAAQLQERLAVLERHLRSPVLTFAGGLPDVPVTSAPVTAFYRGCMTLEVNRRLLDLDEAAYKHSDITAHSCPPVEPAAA

monkey = experiment: 3-month monkey toxicity study; format: in vivo
aggressive human cancers [4] = details: cited from earlier work
highly metastatic cells = experiment: AXL signaled invasion and migration in vitro; format: cell-based
[5] = tested on: pancreatic (PDA1-1) models; experiment: Pancreatic mouse models; format: in vivo
[6] = tested on: platinum-resistant, recurrent ovarian cancer; experiment: Ph1b trial in platinum-resistant, recurrent ovarian cancer; format: in vivo, human
Experimental: AVB-S6-500 was evaluated in a Ph1b trial in combination with either paclitaxel or pegylated liposomal doxorubicin in subjects with platinum-resistant, recurrent ovarian cancer. Fifty-three subjects were dosed with AVB-S6-500 at doses ranging from 10 to 20 mg/kg once every 2 weeks in combination with their physician-chosen chemotherapy. […] All infusion reactions have been Grade 1 or 2, none met serious criteria, and all resolved without sequelae.

[7] = Pharmacokinetics in the cynomolgus monkey; format: in vivo; details: IV
From the text: The pharmacokinetics (PK) and toxicokinetics of AVB-S6-500 and pharmacodynamics (PD) of growth arrest specific-6 protein (GAS6) have been investigated in mice (intraperitoneal [IP] and intravenous [IV] routes) and monkeys (IV route) following single and repeat dosing. The PK profile of AVB-S6-500 is compatible with target-mediated drug disposition (TMDD) with 2 parallel elimination paths: normal clearance of IgG and second order that is saturable and fits the typical 2-compartment model. […] Using the TMDD model (Dirks, N. A., Clinical Pharmacokinetics, 633-659, 2010), the human dose estimated to be efficacious may range from 1 mg/kg (to ensure GAS6 levels remain at least 90% less than baseline) to 20 mg/kg (to ensure 99% abrogation of GAS6 and allowing for a 3-fold increase in GAS6 levels in patients with cancer relative to normal levels). This model was used to select first-in-human dosing, and an external validation showing good agreement between projections and clinical observations has been published (Bonifacio, L., Clinical and Translational Science, 1-8, 2019).

[8] = clinical data from prior studies of AVB-S6-500
[9] = number of the 5 subjects at 15 mg/kg, with chemotherapy

Nc1ccn([C@@H]2O[C@H](CO)[C@@H](O)C2(F)F)c(=O)n1 [gemcitabine]
OS ([1]; 861 subjects randomized): 6.7 months
Sepsis ([1]; all grades): 2%
Fatal events ([1]; in vivo): 4%
median progression-free survival ([1]; in vivo): 3.7 months
pneumonitis ([1]; in vivo): 1%
proportion of patients with SAEs ([1]; in vivo): 43%
response rate according to independent review ([1]; in vivo): 7%

AVB-S6-500: soluble AXL variant polypeptide fusion protein comprising an Fc domain, a linker, lacks a functional FN domain, SEQ ID NO: 2
direct cytotoxicity (tumor cells): not directly cytotoxic
mortalities (mouse; mouse, in vivo): no mortalities
NOAEL (mouse; twice-weekly slow bolus IV infusion): 200 mg/kg/week
no-observed-adverse-effect-level (NOAEL) (mouse; twice-weekly slow bolus IV infusion, 25, 50, 100 mg/kg): at least 100 mg/kg/dose
effect on tumor cells in vivo (aggressive human cancers [2]; dosing 4-7 days after tumor inoculation, small tumors established in the mouse): regression of tumor cells
metastatic disease (aggressive human cancers [2]; preclinical models of aggressive human cancers): inhibiting metastatic disease
patients with Grade 4 or 5 adverse effects ([3]; AVB-S6-500 related, N = 21): no patients
AEs Leading to AVB-S6-500 Treatment Discontinuation, events ([3]; N = 21): fatigue and sepsis
AVB-S6-500-Related Deaths ([3]; N = 21): no AVB-S6-500 related deaths
AEs Leading to AVB-S6-500 Treatment Discontinuation ([3]; patients (% of N = 21)): 2
AEs of Special Interest (Infusion Related Reactions) ([3]; patients (% of N = 21)): 3
Grade 3 Adverse Effects Related to AVB-S6-500 ([3]; patients (% of N = 21)): 6
maximum tolerated dose (MTD) (healthy volunteers; human, in vivo): not reached
dose related AEs or SAEs (healthy volunteers; in vivo): no dose related AEs or SAEs
tolerability (healthy volunteers; single 1, 2.5, 5, 10 mg/kg, 5 mg/kg weekly for 4 weeks, IV over 60 minutes): well tolerated at all doses
apparent affinity to GAS6 (GAS6): 93-324 femtomolar
higher affinity than wild-type (WT) AXL (GAS6): approximately 200 fold
clinical pathology changes (monkey; monkey, in vivo): non-dose-dependent clinical pathology changes seen and those were consistent with an immune response in monkeys to the human AVB-S6-500 protein
mortalities (monkey; monkey, in vivo): no mortalities
NOAEL (monkey; once-weekly 30-minute IV infusion, 50, 100, 150 mg/kg): at least 150 mg/kg/dose
toxicity in pharmacology studies (aggressive human cancers [4]; mouse, in vivo): no toxicity
antitumor efficacy compared with other anti-AXL small molecules in clinical development (aggressive human cancers [4]; nonclinical models): superior antitumor efficacy
AXL signaled invasion and migration (highly metastatic cells): dramatically reducing AXL signaled invasion and migration
metastatic tumor weight and number ([5]; PDA1-1 models, combined with gemcitabine): Significant reductions
fibrosis ([5]; combined with gemcitabine): substantially decreased
survival ([5]; combined with gemcitabine): prolonged
metastasis development ([5]; monotherapy): decrease in metastasis development
dose-limiting toxicities ([6]; 10 to 20 mg/kg every 2 weeks with paclitaxel or pegylated liposomal doxorubicin, 53 subjects): No dose-limiting toxicities were observed
grade of infusion reactions ([6]; all infusion reactions): Grade 1 or 2
toxicity, anemia [6, 8]: 21%
toxicity, fatigue [6, 8]: 26%
toxicity, infusion reaction [6, 8]: 21%
toxicity, nausea [6, 8]: 13%
complete response (CR) [6, 9]: 1
partial responses (PRs) [6, 9]: 2
clearance ([7]; doses above 5 mg/kg): lower
half-life ([7]; doses above 5 mg/kg): longer
volume of distribution ([7]; doses above 5 mg/kg): larger
clearance ([7]; doses below 5 mg/kg): high
half-life ([7]; doses below 5 mg/kg): short
